Test results from PMC12661985, “USP25 deubiquitinates cytosolic METTL3 to impede glioma proliferation via an m6A-independent pathway” (iScience, 2025).
One block for each binder: values may come before it.

How the values were obtained:
[1] = target: T1, His-METTL3 (human, UniProt Q86U44 1-580); test: pull-down; about 10 ug GST fusion protein on glutathione Sepharose incubated with recombinant His-tagged protein, 2 h at 4 C, six washes with NETN buffer; blot with His antibodies; conditions: both partners purified
T1 construct: METTL3, human; also called pGEX-4T-1-His-METTL3; source: E. coli BL21, purified

[2] = target: T2, His-USP25 (human, UniProt Q9UHP3 1-1055); test: as above; conditions: both partners purified
T2 construct: USP25, human; also called pGEX-4T-1-His-USP25; source: E. coli BL21, purified
T2 sequence (looked up): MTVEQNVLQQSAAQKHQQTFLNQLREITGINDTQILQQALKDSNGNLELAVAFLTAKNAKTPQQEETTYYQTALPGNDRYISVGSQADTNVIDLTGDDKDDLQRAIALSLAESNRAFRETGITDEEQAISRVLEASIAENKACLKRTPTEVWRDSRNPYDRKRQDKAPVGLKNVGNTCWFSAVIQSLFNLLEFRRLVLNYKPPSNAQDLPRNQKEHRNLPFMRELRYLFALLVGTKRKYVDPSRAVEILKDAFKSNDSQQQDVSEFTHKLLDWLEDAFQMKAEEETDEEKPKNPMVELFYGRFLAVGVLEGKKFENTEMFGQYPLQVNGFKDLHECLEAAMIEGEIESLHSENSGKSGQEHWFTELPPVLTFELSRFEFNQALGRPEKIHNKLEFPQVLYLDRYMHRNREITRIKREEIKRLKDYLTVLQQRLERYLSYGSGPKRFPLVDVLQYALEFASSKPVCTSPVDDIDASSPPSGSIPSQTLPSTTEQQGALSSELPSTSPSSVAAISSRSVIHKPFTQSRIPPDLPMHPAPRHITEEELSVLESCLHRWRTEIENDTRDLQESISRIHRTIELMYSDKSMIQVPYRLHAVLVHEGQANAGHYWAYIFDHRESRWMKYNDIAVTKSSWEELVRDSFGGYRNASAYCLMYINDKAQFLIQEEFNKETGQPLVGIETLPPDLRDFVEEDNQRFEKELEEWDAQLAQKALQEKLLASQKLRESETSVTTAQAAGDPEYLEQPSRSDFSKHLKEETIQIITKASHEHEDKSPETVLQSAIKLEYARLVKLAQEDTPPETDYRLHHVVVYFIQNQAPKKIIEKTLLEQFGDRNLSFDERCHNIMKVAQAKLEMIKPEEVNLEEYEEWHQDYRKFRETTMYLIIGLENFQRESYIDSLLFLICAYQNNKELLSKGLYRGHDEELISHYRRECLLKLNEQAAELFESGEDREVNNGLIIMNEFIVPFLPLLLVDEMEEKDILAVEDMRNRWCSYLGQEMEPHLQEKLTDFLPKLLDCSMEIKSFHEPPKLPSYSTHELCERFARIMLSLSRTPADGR

T1 sequence (Q86U44 whole entry, the tested form may be a part): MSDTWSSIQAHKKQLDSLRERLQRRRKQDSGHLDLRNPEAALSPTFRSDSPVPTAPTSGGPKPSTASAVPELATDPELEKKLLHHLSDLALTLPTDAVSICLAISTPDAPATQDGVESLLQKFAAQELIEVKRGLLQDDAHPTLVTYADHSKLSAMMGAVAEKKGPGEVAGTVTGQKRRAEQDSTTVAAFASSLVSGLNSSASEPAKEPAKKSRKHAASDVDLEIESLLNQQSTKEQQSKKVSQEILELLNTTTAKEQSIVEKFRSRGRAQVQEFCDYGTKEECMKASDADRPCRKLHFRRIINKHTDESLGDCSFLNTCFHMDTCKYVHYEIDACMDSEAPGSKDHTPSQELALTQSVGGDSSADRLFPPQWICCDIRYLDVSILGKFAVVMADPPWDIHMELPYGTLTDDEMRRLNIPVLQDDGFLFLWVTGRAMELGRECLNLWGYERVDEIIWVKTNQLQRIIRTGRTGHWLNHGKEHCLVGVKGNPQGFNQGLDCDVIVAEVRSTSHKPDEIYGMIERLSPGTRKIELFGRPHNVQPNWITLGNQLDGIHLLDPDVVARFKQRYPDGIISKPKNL

binding result [1]: binds
B1: GST-USP25-166-718 (domain or fragment, human, UniProt Q9UHP3 166-718, looked up)
chain: KAPVGLKNVGNTCWFSAVIQSLFNLLEFRRLVLNYKPPSNAQDLPRNQKEHRNLPFMRELRYLFALLVGTKRKYVDPSRAVEILKDAFKSNDSQQQDVSEFTHKLLDWLEDAFQMKAEEETDEEKPKNPMVELFYGRFLAVGVLEGKKFENTEMFGQYPLQVNGFKDLHECLEAAMIEGEIESLHSENSGKSGQEHWFTELPPVLTFELSRFEFNQALGRPEKIHNKLEFPQVLYLDRYMHRNREITRIKREEIKRLKDYLTVLQQRLERYLSYGSGPKRFPLVDVLQYALEFASSKPVCTSPVDDIDASSPPSGSIPSQTLPSTTEQQGALSSELPSTSPSSVAAISSRSVIHKPFTQSRIPPDLPMHPAPRHITEEELSVLESCLHRWRTEIENDTRDLQESISRIHRTIELMYSDKSMIQVPYRLHAVLVHEGQANAGHYWAYIFDHRESRWMKYNDIAVTKSSWEELVRDSFGGYRNASAYCLMYINDKAQFLIQEEFNKETGQPLVGIETLPPDLRDFVEEDNQRFEKELEEWDAQLAQKALQEKLLA
notes: USP25, human, USP domain, residues 166-718; also called USP domain (aa 166-718) of USP25; pGEX-4T-1-GST-USP25-166-718; source: E. coli BL21, purified (glutathione Sepharose)

binding result [2]: binds
B2: GST-METTL3-369-424 (domain or fragment, human, UniProt Q86U44 369-424, looked up)
chain: FPPQWICCDIRYLDVSILGKFAVVMADPPWDIHMELPYGTLTDDEMRRLNIPVLQD
notes: METTL3, human, Gate-loop 1; source: E. coli BL21, purified (glutathione Sepharose)

binding result [2]: binds
B3: GST-METTL3-425-500 (domain or fragment, human, UniProt Q86U44 425-500, looked up)
chain: DGFLFLWVTGRAMELGRECLNLWGYERVDEIIWVKTNQLQRIIRTGRTGHWLNHGKEHCLVGVKGNPQGFNQGLDC
notes: METTL3, human, Interface loop, residues 425-500; also called Interface loop (aa 425-500) of METTL3; pGEX-4T-1-GST-METTL3-425-500; source: E. coli BL21, purified (glutathione Sepharose)
